Test results as given in paper doi:10.1101/2023.08.10.552896.
Where two headings read alike, the source gives them in different places.

Tests used:
[1] = biological target: Transthyretin, wild type, first purification protocol (TTR1st) (human (by the printed accession P02766)) (UniProt P02766); assay: SEC
[2] = biological target: Transthyretin, wild type, first purification protocol (TTR1st) (human (by the printed accession P02766)) (UniProt P02766); assay: SEC; remark: listed apart in the source

Transthyretin, wild type, first purification protocol (TTR1st) (from UniProt P02766 21-147) (enzyme)
percent of the sample as oligomers (oTTR) [1]: 4% | percent of the sample as oligomers (oTTR) [2]: 7% | percent of the sample as tetramer [2]: 93% | stoichiometry N [2]: 4
